Experimental data from US7109015B2, “Removal of N-terminal methionine from proteins by engineered methionine aminopeptidase” (Academia Sinica, priority 2004, dated 2006).
Where a chain is given by its changes, count along the chain named. Numbers in names are those of the source. Like-named read-outs stand apart in the source and are kept apart here. Marks after values point to notes of the source that are not given here.

Tests used:
[1] = E. coli MetAP mutations; Chiu et al. 1999; cited from earlier work
Met-tagged onconase = assay: In vivo catalytic activity of MetAPs co-expressed with Met-tagged onconase in E. coli BL21(DE3); N-terminus by Edman degradation; type: cell-based; conditions: in vivo in E. coli
Source text: Residues Tyr168, Met206 and Gln233 in the putative substrate-binding site of E. coli MetAP were mutated by site-directed mutagenesis based on the crystal structure and amino acid sequence alignment of MetAPs (Ben-Bassat et al., 1987; Lowther et al., 1999; Walker et al., 1999). For the expression of secretory ribonucleases, the ribonuclease gene was cloned and expressed as described previously (Huang et al., 1998).
Most of the co-expressed target protein, e.g., onconase or RC-RNase L1, existed in insoluble cell lysate. They were denatured, renatured and purified as described previously (Liao et al., 2003). The purified ribonucleases were stored in 20 mM sodium phosphate, pH 7.0, for pyroglutamate formation at the N-terminus. Alternatively, the ribonuclease secreted into culture medium through pe1B system was concentrated and purified to electrophoretical homogeneity at a yield of 1˜5 mg per 1 liter of culture (Huang et al., 1998).

[2] = target: Met-tagged onconase with different penultimate residue (Escherichia coli, UniProt P0AE18); conditions: adapted from Hirel et al., 1989, cited from earlier work
RC-RNase4 = assay: In vivo Met removal, co-expression in E. coli, RC-RNase 4 substrate; type: cell-based, Rana catesbeiana; conditions: substrate MAAWA (SEQ ID NO:15)-RC4; solubility −
Procedure: The MetAP was expressed alone or co-expressed with a target protein, i.e., onconase and RC-RNaseL1, in E. coli BL21 (DE3) in the presence of 0.5 mM IPTG at 37° C.
Proteins in the cell pellet or in the soluble fraction were separated by 13.3% SDS-PAGE and contact-transferred to ProBlott™ membrane (Applied Bioystems) in transfer buffer (10 mM Tris-HCl, pH 7.5, 50 mM NaCl, 2 mM EDTA, 0.5 mM 2-mercaptoethanol) overnight. The five N-terminal residues of the transferred protein were determined by Edman degradation. The percentage of Met removal was calculated by dividing the amount of proteins initiated with the penultimate residue with the amount of total proteins (including proteins initiated with the penultimate residue and unprocessed protein initiated with Met) after the first degradation cycle. In theory, this percentage should remain the same after each degradation cycle. Therefore, in order to avoid experimental variation, the same calculation was made from five consecutive degradation cycles, e.g., M, Q, N, W and L for onconase. The efficiency of Met removal is reported as the mean values of at least three cycles.

synthetic oligopeptides = type: biochemical; conditions: for Specific activity (unit/mg): 4 mM oligopeptide, pH 7.5, 37° C.
Procedure: The oligopeptide substrates used in this experiment were synthesized on the 432A Synergy peptide synthesizer (Applied Biosystems, Foster, Calif., USA). The enzymatic activity of purified MetAP was assayed as described by Ben-Bassat et al., 1987. Briefly, the diluted MetAP enzyme in 10 μl was added to 90 μl of the substrate solution containing 4 mM oligopeptide, 0.1 M potassium phosphate buffer, pH 7.5 and 0.2 mM CoCl2, incubated at 37° C. for 10 min and stopped in boiling water for 2 min. After addition of 0.9 ml of color development mixture containing 0.2 mg of L-amino acid oxidase, 0.03 mg of horseradish peroxidase and 0.2 mg of o-dianisidine in 0.1 M Tris-HCl, pH 7.4, the mixtures were incubated for 10 min at 37° C., and the optical density at 440 nm was recorded. One unit of activity is defined as 1 μmol of amino acids produced per min under the assay conditions and the pure Met was used as standard. The N-terminal residues of the MetAP-treated oligopeptide were further verified by Edman degradation.

[3] = substrate MAA-Onc, listed as wild type E. coli MetAP

B1: C59S: E. coli MetAP mutation in the putative substrate-binding pocket (protein, UniProt P0AE18 2-264, looked up, variant C59S)
Methionine aminopeptidase: AISIKTPEDIEKMRVAGRLAAEVLEMIEPYVKPGVSTGELDRICNDYIVNEQHAVSASLGYHGYPKSVCISINEVVCHGIPDDAKLLKDGDIVNIDVTVIKDGFHGDTSKMFIVGKPTIMGERLCRITQESLYLALRMVKPGINLREIGAAIQKFVEAEGFSVVREYCGHGIGRGFHEEPQVLHYDSRETNVVLKPGMTFTIEPMVNAGKKEIRTMKDGWTVKTKDRSLSAQYEHTIVVTDNGCEILTLRKDDTIPAIISHDE
Catalytic activity, % activity of the wild type [1]: do not reduce catalytic activity

B2: W221L: E. coli MetAP mutation in the putative substrate-binding pocket (protein, UniProt P0AE18 2-264, looked up, variant W221L)
Methionine aminopeptidase: B1 Methionine aminopeptidase with S58C, W220L
Catalytic activity, % activity of the wild type [1]: 27%

B3: Y65F: E. coli MetAP mutation in the putative substrate-binding pocket (protein, UniProt P0AE18 2-264, looked up, variant Y65F)
Methionine aminopeptidase: B1 Methionine aminopeptidase with S58C, Y64F
Catalytic activity, % activity of the wild type [1]: do not reduce catalytic activity

B4: F177L: E. coli MetAP mutation in the putative substrate-binding pocket (protein, UniProt P0AE18 2-264, looked up, variant F177L)
Methionine aminopeptidase: B1 Methionine aminopeptidase with S58C, F176L
Catalytic activity, % activity of the wild type [1]: do not reduce catalytic activity

B5: Y62F: E. coli MetAP mutation in the putative substrate-binding pocket (protein, UniProt P0AE18 2-264, looked up, variant Y62F)
Methionine aminopeptidase: B1 Methionine aminopeptidase with S58C, Y61F
Catalytic activity, % activity of the wild type [1]: do not reduce catalytic activity

B6: C70S: E. coli MetAP mutation in the putative substrate-binding pocket (protein, UniProt P0AE18 2-264, looked up, variant C70S)
Methionine aminopeptidase: B1 Methionine aminopeptidase with S58C, C69S
Catalytic activity, % activity of the wild type [1]: 54%

B7: MetAP-YMQ: wild type E. coli Met aminopeptidase (SEQ ID NO:1) (protein, listed as Escherichia coli)
chain: MAISIKTPEDIEKMRVAGRLAAEVLEMIEPYVKPGVSTGELDRICNDYIVNEQHAVSACLGYHGYPKSVCISINEVVCHGIPDDAKLLKDGDIVNIDVTVIKDGFHGDTSKMFIVGKPTIMGERLCRITQESLYLALRMVKPGINLREIGAAIQKFVEAEGFSVVREYCGHGIGRGFHEEPQVLHYDSRETNVVLKPGMTFTIEPMVNAGKKEIRTMKDGWTVKTKDRSLSAQYEHTIVVTDNGCEILTLRKDDTIPAIISHDE
Catalytic activity (%): percent of penultimate residue removed (Met-tagged onconase; substrate MAA-Onc): 77% | Catalytic activity (%): removal of N-terminal Met (Met-tagged onconase; substrate MAA-Onc): 85% | Catalytic activity (%): percent of penultimate residue removed (Met-tagged onconase; [3]): removed | Catalytic activity (%): removal of N-terminal Met (Met-tagged onconase; [3]): removed | Catalytic activity (%): percent of penultimate residue removed (Met-tagged onconase; substrate MAG-Onc): 63% | Catalytic activity (%): removal of N-terminal Met (Met-tagged onconase; substrate MAG-Onc): 80% | Catalytic activity (%): removal of N-terminal Met (Met-tagged onconase; substrate MQD-Onc, listed as wild type MetAP): failed altogether | Catalytic activity (%): removal of N-terminal Met (Met-tagged onconase; substrate MQD-Onc, listed as wild type enzyme): no activity | Catalytic activity (%): efficiency of Met removal by wild type MetAP ([2]; substrate MAD-Onc): 100% | Catalytic activity (%): efficiency of Met removal by wild type MetAP ([2]; substrate MDD-Onc): ~20% | Catalytic activity (%): efficiency of Met removal by wild type MetAP ([2]; substrate MED-Onc): 0% | Catalytic activity (%): efficiency of Met removal by wild type MetAP ([2]; substrate MFD-Onc): 0% | Catalytic activity (%): efficiency of Met removal by wild type MetAP ([2]; substrate MGD-Onc): 100^c % | Catalytic activity (%): efficiency of Met removal by wild type MetAP ([2]; substrate MHD-Onc): 0% | Catalytic activity (%): efficiency of Met removal by wild type MetAP ([2]; substrate MID-Onc): ~20% | Catalytic activity (%): efficiency of Met removal by wild type MetAP ([2]; substrate MKD-Onc): 0% | Catalytic activity (%): efficiency of Met removal by wild type MetAP ([2]; substrate MLD-Onc): ~20% | Catalytic activity (%): efficiency of Met removal by wild type MetAP ([2]; substrate MMD-Onc): 0% | Catalytic activity (%): efficiency of Met removal by wild type MetAP ([2]; substrate MND-Onc): ~20% | Catalytic activity (%): efficiency of Met removal by wild type MetAP ([2]; substrate MPD-Onc): 80–90% | Catalytic activity (%): efficiency of Met removal by wild type MetAP ([2]; substrate MQD-Onc): 0% | Catalytic activity (%): efficiency of Met removal by wild type MetAP ([2]; substrate MRD-Onc): 0% | Catalytic activity (%): efficiency of Met removal by wild type MetAP ([2]; substrate MSD-Onc): 80–90% | Catalytic activity (%): efficiency of Met removal by wild type MetAP ([2]; substrate MTD-Onc): 80–90% | Catalytic activity (%): efficiency of Met removal by wild type MetAP ([2]; substrate MVD-Onc): 80–90% | Catalytic activity (%): efficiency of Met removal by wild type MetAP ([2]; substrate MWD-Onc): 0% | Catalytic activity (%): efficiency of Met removal by wild type MetAP ([2]; substrate MWD-Onc, listed as wild type MetAP): inactive | Catalytic activity (%): efficiency of Met removal by wild type MetAP ([2]; substrate MYD-Onc): 0% | Catalytic activity (%): efficiency of Met removal by wild type MetAP ([2]; substrate MYD-Onc, listed as wild type MetAP): inactive | Catalytic activity (%): percent of penultimate residue removed (RC-RNase4): removed | Catalytic activity (%): removal of N-terminal Met (RC-RNase4): removed | In vitro catalytic activity (synthetic oligopeptides; oligopeptides ranging from tetra- to dodecapeptides with Ala at the penultimate site): high catalytic activity | Specific activity (unit/mg) (synthetic oligopeptides; substrate MADY (SEQ ID NO:7)): 138 ± 8 unit/mg | Specific activity (unit/mg) (synthetic oligopeptides; substrate MADYLT (SEQ ID NO:8)): 138 ± 6 unit/mg | Specific activity (unit/mg) (synthetic oligopeptides; substrate MQDYLT (SEQ ID NO:9)): 0.43 ± 0.01 unit/mg | Specific activity (unit/mg) (synthetic oligopeptides; substrate […] (SEQ ID NO:5)): 85 ± 13 unit/mg | Specific activity (unit/mg) (synthetic oligopeptides; substrate […] (SEQ ID NO:6)): 0.62 ± 0.08 unit/mg
